Experimental data published in a protein production outcome set (Wang et al. 2014).

Assay: label from the status in PepcDB records

| Sequence | protein production |
| --- | --- |
| MEESKELNAVIDVIMLAGTILLKSGSEIHRVEDTMIRIAHSQGIVDCNVLAMPAAIFFSIENTNISRMKRVTSSSYNIEKVCDVNQISRQLVGGQIDLETAFKQLTALQAKPLPYTKLQVTLAATFSAPFFSVMFSGNIYDALGAGVATLFGFAFSLYVEKFIRIPFVTAFAGAFVFGIIAQFWARYTGFPSTADLIIAGAVMPFVPGIALTNAVRDIMTNHINSGMSKMFESLLITLALGAGTSVALVLMN | failed |
| MVPPKLKQALELFKSLPKELRSQVLLEYAAKVPPPPPGVELERVHECQTPFFVHADVEGGKVRLYFHVPDEAPTVKAFAGLLREGLEGESPEAVLEVPPGFYRGYGLEEFFTPLRLRGLEAALLRLQAQVRKALTS | not failed |
| MELRTPGTKWSPQGIGSLRRVVWDYSTPEISLFSEEGLKGEQVKLTEALKNSQGLEKPLQVASATVSAGLWLLYPKPLFEDTPYILEPGEYPTSEAWGTSDPSVGSLKPMRLGCPSVEKPGEPRAVVYEAPGFQGRSWEVSRDIYNLQQPEDSQSPHLASVGSLRVLGGCWVGYEKEGFRGHQYLLEEGEYPDWSHWGGYDELLTSLRVIRTDFGDPAVVLFEAMDFEGHGVEVSKALPDVELVQHGPSTQAIHVLSGVWVAYQEVGFSGEQYVLEKGVYRNCEDWGAGNSTLASLQPVLQVGEHDLHFVSKIQLFSRPDFLGDHFSFEDDQAALPASFRPQSCRVHGGSWILFDETNFEGDQHILSEGEFPTLTAMGCLASTVLGSLQKVSLHFSEPSIFLYGLECFEGKEIELSREVRSLQAEGFNNHVLSVRIKGGIWVLCEHSDFRGRQWLVGSCEITNWLTYSGTQRVGSLYPIKQRRVYFRLWNAALGGFLAVPDHVEDMKAGRVVVADPQAGGSCIWYYEDGLLKNQMAPTMSLQVIGPPSPGSKVVLWAESRLPRQTWSISESGHICSQMFEGQILDVKGGRGYDRDHVVLWEPDEDRASQIWTIHVL | failed |
| MGHHHHHHSHMAPWRKADKERHGVAIYNFQGSGAPQLSLQIGDVVRIQETCGDWYRGYLIKHKMLQGIFPKSFIHIK | failed |
| MEENLISMREDHSFHVRYRMEASCLELALEGERLCKSGDCRAGVSFFEAAVQVGTEDLKTLSAIYSQLGNAYFYLHDYAKALEYHHHDLTLARTIGDQLGEAKASGNLGNTLKVLGNFDEAIVCCQRHLDISRELNDKVGEARALYNLGNVYHAKGKSFGCPGPQDVGEFPEEVRDALQAAVDFYEENLSLVTALGDRAAQGRAFGNLGNTHYLLGNFRDAVIAHEQRLLIAKEFGDKAAERRAYSNLGNAYIFLGEFETASEYYKKTLLLARQLKDRAVEAQSCYSLGNTYTLLQDYEKAIDYHLKHLAIAQELNDRIGEGRACWSLGNAYTALGNHDQAMHFAEKHLEISREVGDKSGELTARLNLSDLQMVLGLSYSTNNSIMSENTEIDSSLNGVRPKLGRRHSMENMELMKLTPEKVQNWNSEILAKQKPLIAKPSAKLLFVNRLKGKKYKTNSSTKVLQDASNSIDHRIPNSQRKISADTIGDEGFFDLLSRFQSNRMDDQRCCLQEKNCHTASTTTSSTPPKMMLKTSSVPVVSPNTDEFLDLLASSQSRRLDDQRASFSNLPGLRLTQNSQSVLSHLMTNDNKEADEDFFDILVKCQGSRLDDQRCAPPPATTKGPTVPDEDFFSLILRSQGKRMDEQRVLLQRDQNRDTDFGLKDFLQNNALLEFKNSGKKSADH | failed |
| MKAGIHPDYKKVVFMDTNTGFKFLSGSTKGSNETVEWEDGNTYPLLKVEISSDSHPFYTGRQKFATADGRVDRFNKKYGLK | failed |
| MPPHASQVSVVVIGYDDAAHVTDAVRSALAQGPAVREVIAVDDCSSDGSPGLLDALAVEDTRVRVLRREVNSGGCGTPRNDGIDAATAPYTMFLDSDDMLPPGAVEALLAAADRHGAQVAAGLCVRRELPSGREVPWQPELYTEPALVPHPARLRRLVHDTLCVNKLYRTDFLREHAIRFPDGRFPYEDFVFSARVLAAGPRMALVPDTVYVWHVRRSAERLSISLDRAGIDNWQARMAAAAQAYDILLGAGEKRLARAARAKFLDHELRMYTRELDLRGTEYRREWWTLTRAYLSAFDAAEFALAPAPGRVIARVVLAAEEPRDLPRLKELAARPARLHPPYARAADGTPVWSADLPQVPLDHVLVRPMHLLPVAVDAELRPRARGTRLRLRLHELYGRVADAGPASVNLEFVHREGGRVGTAATAPLLADPEFDTWSAEVPVDLAALGSGTWDLRLTLRFHDGTSRDTTAHAVAGPGLLRRGVVPSGRHGVLLVQPYATHSGALALRVATGIQGVTSVMGRRLRRLLHW | failed |
| MRLSFGITSKLFVALFALSMVVALAMGAAVRWRFDTNFLDYVNAREAERMAVFAQSIESVYAEHGNWGVLRNDRQAWYRLIRREIGRTHAGPFGGPRGDAEPVPPFAPPPGDVPPPGLPPPPPDAGDRPPQHPPGEGPGMHPPIWLLDAGRVPIVGDGPPPGPGSQWHALHHNGQTVGWLATPQRMHVPEGADQAFLAQQLRATWIIAALSVLLAAGVAILLARGVLAPMRRLAHATRRMAEGDYAARVDVHSGDEIGHLADDFNRLAETLEANQKMRRQLTADISHELRTPLAVLRGELEALEDGVRALTPASLTSLQAEVGTLSKLIDDLYELSLADVGALAFHMESIDLADTVCSAAQGFTPRLMDKRIALQLDLPTGPSRDAAIQGDPQRLRQLMQNLLENTLRYTDAGGTLRIHVHRAGAWWCLDVQDSAPGVPEAMLPRVFDRLFRADPSRGRAQGGAGLGLSLCQTIVQTHGGTIDARPSPLGGLWIAIRLPAANSSVADHDPDR | failed |
| MKRLYKAMFIVFILLVLMFASQQGLFEHVTNSNWVAHFIKAEGNYALMALLAVGALFTAVGGPRQVIAFVFGFALGGIYGGLFSTLAALLGCVLVFYTARLTIRSSLQRRFGHRLQKFEALIIHRTWLKVLMIRLLPVGSNLLTNLFAGATHISPGGFLFGSMLGYLPQMLIFSFAGAGIGLADHNQLWISIGLFIVSSLIGAYLYRSSLRKQVDELEH | failed |
| MGCRATQRESVGFADKIRYTERRFISVFGVPLLIQLICQAPQRAQELEQIAARWQLQASDDSPFALVLSEERLELRKLDEPKLGAIYVDWVEGAVAHRRKFGGGKGQSIAKAAGLNKGVTPVVLDATAGLGRDAFVLASLGCRVQMVERHPVVAALLEDGLQRAKQDDEIGAWVSERISLLHASSHDALQQLASDPNFTSPDVVYLDPMYPHPENKKKTALVKKEMRVFQSLVGADNDADALLEPALQLAQKRVVVKRPDYAPWLGNRKPSMAMETKKNRFDVYVIAAMSGE | failed |
| MPRRRVETRRVDHDPGKRTLLLSPVLPLPTMRTCALALLTILLGAPAHGQSTDGPWTIDHVLTQRSLTDVDIGPDGNRVLWVKETPDPEADETTSDVYLTYRDDPHGDSTATLQLTRTGDNRAPRWSPDGEHIAFLSSREQEDAAESSGTQIWRLDPRGGAPEVITSVEHGVQGARWLDDDRLLFTAREQNTRYEQHLEQTEDDADVIEDTTLFRPVRLFTVHVGTGEVTRVTNNDHQIGEFAPSPNGSRVVYSLSDSPITADARNQPHQFLLNLNTGATTEIFDEQYVDPSNFQWTADGAGFYATDSYSSDPEHEGAGITKLYHYDLAARDYQEVPLEWGDKGVGYGGYTVVDGGLHVQLADGPTFEPRFYRKTSDGWAPAEVADERLEHASAFTAGPDGETVVFSHSTADTPPSYRVGTYREGALQRDETLTTLNENLDDLPIPRAEVVRWTGANGETVNGILHYPLDYDPDRAYPMMTVLHGGPSGVDLDAWSLGWTVYAPLLAQRDAFVFRPNYHGSGHHGLDFVESIKGKYYELEVPDIVSGIDSLAAAGVVDKDSLGVMGWSNGAILTTQLTIEHPELFQVAAPGAGDVNWTSDYGNCAFGVRFDRSYFKGAPWTYTEHYIEKSPLFEMPKVQTPTLIHHGTEDRAVPYEQGWEYYRALQQIGNAPVRFLSYPGEPHGLRQLSHQRRKVAEDLKWIDTYLFGETSMQERVSERLLADDAPLSLLETAEAPARTDGHYGVRANGTLVPETVTLGDTLTVGRFEVTRAQFRAYDADFEVPSGTAEYPAHGLAADRAQAYVDWLSEQTGRDYRLPTAAELAALKAARAGPSENTPAYWAGFTPTPDEYRRLRARLAQHPTEALLMPVGSRPAGHGPNGGGPLIYDVDGNVAEWARTADGIEAQNASALTLKDPKAETAPTPPRRVTGLRVVLDR | failed |
| MIVAAPEQYSRDRDWQQAIAAGELTLALQPQMGLRNRQLRGFEVQLRWQHPQQGTLLASQLMEHLEQSQHRETVGRWFLDQAGQLLSQWRNSAQFSGLFALSLLPQQWKSPSFIHDLRSLLETYQIPPEQLELDLPAQSLAESAAESWDWVYAVRDLGIGIGLADFGSRSIGLYDLRNLPLTTLKLERRFVRGLPDDANDRAIVRGVVAMSQALKVRIVARGVDTVDQAKFLARAECDAMQGLAYSAPLEHHHHHH | failed |
